Measurements as given in US10792329B2, “S100 based treatment of cardiac power failure” (Ruprecht-Karls-Universitat Heidelberg, priority 2013, dated 2020).

How the values were obtained:
Type in all cases: in vivo
[1] = test system: C57B/6 mice with normal cardiac function; assay: Cardiac performance (echocardiography, LV EF %) versus myocardial S100A1 protein level in normal mice
Experimental: The range of myocardial S100A1 protein expression that conveys cardiac performance enhancement in mice with normal cardiac function is determined by the use of AAV9-mediated human S100A1 cDNA myocardial delivery. The cardiac performance with respect to gradually increasing myocardial S100A1 protein levels was assessed in normal 6 months old C57B/6 mice with the aim to determine the efficient dose range of S100A1 protein concentrations in normal myocardium for acute and sustained enhancement of cardiac function in vivo. Techniques used are described in detail in Voelkers et al. Circ Res (2011) 108; 27-39 employing intravenous application of AAV9 for a gradual increase in global myocardial transgene expression; in Most et al. JCI (2004) 114; 1550-1563 for echocardiography for cardiac function analysis. AAV9-S100A1 and corresponding control vector generation and use of the cardiac specific promoter element to drive expression of both transgenes is described in detail in Pleger et al. Science Translational Medicine (2011) 3, 92ra64. The S100A1 overexpression (2, 4, 8, 20 and 50 fold) corresponds to intravenous AAV9-S100A1 dosages (total virus particles; tvp) 5×10^10, 1×10^11, 2×10^11, 5×10^11, 1×10^12 respectively. Total S100A1 protein amount in murine myocardium was assessed by ELISA as described in detail in Example 4. S100A1 concentrations were measured by Western Blot as described by Most et al. JCI (2004) 114; 1550-1563 using a custom-made rabbit anti-S100A1 polyclonal IgG antibody (SA 5632). 0.83 μg S100A1 protein/g wet weight myocardium equals normal S100A1 values in healthy left ventricular myocardium and has been set as 1 for relative comparison. Conversion between n-fold relative changes assessed by WB and total myocardial S100A1 protein measured by ELISA is given by the second x-axis. […] The biologically effective S100A1 dosages fall into the range between 0.83 to 41.5 μg S100A1 protein/g wet weight myocardium and peak actions relate to 3.32 μg S100A1 protein (assessed by ELISA).

[2] = test system: domestic pigs with impaired cardiac function (post-ischemic heart failure); assay: Cardiac function (LV EF %, LV+dp/dt max) in failing pig hearts
Source text: (§1) This Example details the therapeutic window of viral-based re-expression and augmentation of myocardial S100A1 protein concentrations in domestic pigs with impaired cardiac function. The results for S100A1 dose-dependency in heart failure mice provide the base for determining the therapeutic window of S100A1 re-expression animal models that approximate human weight, size and cardiovascular anatomy and pathophysiology. Post-ischemic heart failure in pigs was induced by experimental myocardial infarction through temporary occlusion of the left circumflex coronary artery by percutaneous balloon occlusion. S100A1 re-expression and overexpression was achieved by retrograde intravenous application of increasing dosages of AAV6-S100A1 with S100A1 expression controlled by a cardiac specific promoter element. Analytical techniques and molecular tools used to this end are described in detail in Pleger et al. Science Translational Medicine (2011) 3, 92ra64. AAV6 was used in addition to AAV9 exploiting its greater myocardial transduction efficacy of AAV6 to achieve increasing myocardial S100A1 protein concentrations. S100A1 re-/overexpression 1.6, 6, 20 and 50 fold corresponds to intravenous AAV9-S100A1 dosages (total virus particles; tvp) of 1.5×10^13 (1.6-fold) and AAV6-S100A1 dosages of 1.5×10^11 (6-fold), 1.5×10^12 (20 fold) and 1.5×10^13 (50-fold), respectively. […]

[3] = test system: domestic pigs with impaired cardiac function (post-ischemic heart failure); assay: β-adrenergically triggered ventricular tachyarrhythmias, large animal model; conditions: large animal example, FIG. 8
Source text: as §1

[4] = test system: C57B/6 mice with impaired cardiac function due to experimental myocardial infarction; assay: Cardiac function (LV EF %, LV+dp/dt max) in failing mouse hearts
Experimental: (§2) The therapeutic window of viral-based re-expression and augmentation of myocardial S100A1 protein concentrations in mice with impaired cardiac function was then analysed. The results for S100A1 dose-dependency in normal mice provides the basis for determining the therapeutic window of S100A1 re-expression in C57B/6 mice with impaired cardiac function due to experimental myocardial infarction through temporary occlusion of the left anterior coronary artery as technically described in detail in Brinks et al. Circ Res (2010) 107; 1140-1149. Techniques for intravenous application of AAV9 for gradual increases in global myocardial transgene expression are described in detail in Voelkers et al. Circ Res (2011) 108; 27-39; in Most et al. JCI (2004) 114; 1550-1563 echocardiography for cardiac function analysis. AAV9-S100A1 and corresponding control vector generation and use the cardiac specific promoter element to drive expression of both transgenes is described in detail in Pleger et al. Science Translational Medicine (2011) 3, 92ra64. The S100A1 re-/overexpression 0.7, 2, 4, 8, 20 and 50 fold corresponds to intravenous AAV9-S100A1 dosages (total virus particles; tvp) 2×10^10 ′, 5×10^10, 1×10^11, 2×10^11, 5×10^11, 1×10^12 respectively. Total S100A1 protein amount in murine myocardium was assessed by ELISA as described in detail in Example 4. S100A1 concentrations were measured by Western Blot as described by Most et al. JCI (2004) 114; 1550-1563 using a custom-made rabbit anti-S100A1 polyclonal IgG antibody (SA 5632). Total S100A1 protein amounts below 0.83 μg S100A1 protein/g wet weight myocardium characterizes failing left ventricular myocardium with impaired contractile function. Conversion between n-fold relative changes assessed by WB and total myocardial S100A1 protein measured by ELISA is given by the second x-axis.
Therapeutic actions peak around 4-fold S100A1 overexpression relating to a total S100A1 protein amount of 3.32 μg S100A1 protein/g wet weight myocardium. The S100A1 therapeutic window of contractile performance enhancement falls into the range between 0.25 and 41.4 μg S100A1 protein/g wet weight myocardium. Values reflect the relative range from re-expression to normal and up to 50 fold relative increase in S100A1 protein levels.

[5] = test system: C57B/6 mice with impaired cardiac function due to experimental myocardial infarction; assay: CrP/ATP ratio as surrogate for cardiac metabolism in failing mouse hearts
Experimental: as §2, with “AAV9-S100A1 and corresponding control vector generation and use the cardiac specific promoter element to drive expression of both transgenes is described in detail in Pleger et al. Science Translational Medicine (2011) 3, 92ra64. The S100A1 re-/overexpression 0.7, 2, 4, 8, 20 and 50 fold corresponds to intravenous AAV9-S100A1 dosages (total virus particles; tvp) 2×10^10 ′, 5×10^10, 1×10^11, 2×10^11, 5×10^11, 1×10^12 respectively.” left out, “Total S100A1 protein amounts below 0.83 μg S100A1 protein/g wet weight myocardium characterizes failing left ventricular myocardium with impaired contractile function.” left out, “x-axis. […]” for “x-axis.”

[6] = test system: C57B/6 mice with impaired cardiac function due to experimental myocardial infarction; assay: β-adrenergically triggered ventricular tachyarrhythmias in failing mouse hearts
Experimental: as §2, with “AAV9-S100A1 and corresponding control vector generation and use the cardiac specific promoter element to drive expression of both transgenes is described in detail in Pleger et al. Science Translational Medicine (2011) 3, 92ra64. The S100A1 re-/overexpression 0.7, 2, 4, 8, 20 and 50 fold corresponds to intravenous AAV9-S100A1 dosages (total virus particles; tvp) 2×10^10 ′, 5×10^10, 1×10^11, 2×10^11, 5×10^11, 1×10^12 respectively.” left out, “Total S100A1 protein amounts below 0.83 μg S100A1 protein/g wet weight myocardium characterizes failing left ventricular myocardium with impaired contractile function.” left out, “x-axis. […]” for “x-axis.”

[7] = test system: domestic pigs with impaired cardiac function (post-ischemic heart failure); assay: CrP/ATP as surrogate for cardiac metabolism in failing pig myocardium; conditions: re-expression to normal and up to a 50 fold increase
Source text: as §1

[8] = re-expression to normal and up to a 50 fold increase

B1: S100A1: EF-hand calcium-binding protein of the S100 family; human S100A1 expressed in myocardium from AAV-delivered cDNA (protein, UniProt P23297 1-94, looked up)
Protein S100-A1: MGSELETAMETLINVFHAHSGKEGDKYKLSKKELKELLQTELSGFLDAQKDVDAVDKVMKELDENGDGEVDFQEYVVLVAALTVACNNFFWENS
increase of cardiac S100A1 protein concentrations at which left ventricular ejection fraction (LV EF %) peaks ([1]; anesthetized normal mice, compared to normal S100A1 protein levels, assessed by WB): 4-6 fold
effect of further increase in cardiac S100A1 protein concentrations ([1]; normal mice, above the effective range): loss of the S100A1-mediated contractile performance enhancement
S100A1 protein amount of peak actions ([1]; normal mice, assessed by ELISA): 3.32 μg S100A1 protein
effect of further increase in cardiac S100A1 protein concentrations ([2]; above the therapeutic window): complete loss of S100A1's therapeutic actions
cardiac function assessed by LV EF % and LV+dp/dt max [2, 8]: restores and improves cardiac function
effect of further increase in cardiac S100A1 protein concentrations ([3]; above the therapeutic window): complete loss of S100A1's therapeutic actions
β-adrenergically triggered ventricular tachyarrhythmias [3, 8]: prevents β-adrenergically triggered ventricular tachyarrhythmias
S100A1 overexpression at which therapeutic actions peak [4]: around 4 fold
total S100A1 protein amount at which therapeutic actions peak [4]: 3.32 μg S100A1 protein/g wet weight myocardium
cardiac function assessed by LV EF % and LV+dp/dt max ([4]; S100A1 re-expression and over-expression): restores and improves cardiac function
effect of further increase in cardiac S100A1 protein concentrations ([4]; above the therapeutic window): complete loss of S100A1's therapeutic performance enhancement
effect of further increase in cardiac S100A1 protein concentrations ([5]; above the therapeutic window): complete loss of S100A1's therapeutic anti-arrhythmic actions
CrP/ATP ratio as surrogate for cardiac metabolism restoration [5, 8]: improves the CrP/ATP ratio
effect of further increase in cardiac S100A1 protein concentrations ([6]; above the therapeutic window): complete loss of S100A1's therapeutic anti-arrhythmic actions
β-adrenergically triggered ventricular tachyarrhythmias [6, 8]: prevents β-adrenergically triggered ventricular tachyarrhythmias
CrP/ATP as a surrogate for cardiac metabolism restoration [7]: improves the CrP/ATP
